What was measured:
[1] = target: T1, recombinant hemagglutinin B/Brisbane/2008, full-length construct (full-length soluble ectodomain, FLsE) (influenza B virus B/Brisbane/60/2008, UniProt C0LT35, strain); experiment: multiplex bead assay (Luminex); conditions: one partner purified
T1 construct: also called B/Brisbane/60/2008; B/Vic

[2] = target: T2, recombinant hemagglutinin B/Brisbane/2008, head construct (trimeric, head-only) (influenza B virus B/Brisbane/60/2008, UniProt C0LT35, strain); experiment: multiplex bead assay (Luminex); conditions: one partner purified
T2 construct: also called rHA head

B1: year 2 postvaccination Bmem BCR of infant 1, clonally related to the most abundant IBV HA-specific plasma IgG clonotype (antibody, V domains shown)
VH: EVQLVESGGGLVQPGGSLRLSCAASGFTFRSYEMNWVRQAPGKGLEWISYISGSGGTIYYADSVKGRFTISRDNARNSLYLQMNSLRAEDTAVYYCARDLRGIGDYWGQGTLVTVSS
VL: SSELTQDPAVSVALGQTVRITCQGDSLRSYYASWYQQKPGQAPVLVIYGESNRPSGIPDRFSGSSSGNTASLTITGAQAEDEADYYCNSRDNSGNLYVFGSGTKVTVL
B1: binds [1]; no binding [2].

From article PMC9765176, “Infant Antibody Repertoires during the First Two Years of Influenza Vaccination” (mBio, 2022)
